In article PMC8175468, “3D architecture and structural flexibility revealed in the subfamily of large glutamate dehydrogenases by a mycobacterial enzyme” (Communications Biology, 2021):

Key:
[1] = target: the molecule itself; assay: crystal structure; Se-Met mL-GDH180 at 16.5 mg/ml with equimolar GarA; 100 mM sodium cacodylate pH 5.8, 12% v/v glycerol, 1.25 M (NH4)2SO4, 4 °C; two monomers in the asymmetric unit, tetramer by crystallographic symmetry; 6.27 Å
[2] = target: the molecule itself; assay: cryo-EM structure; 0.3 mg/ml native mL-GDH180 on Quantifoil R2/2 grids; single-particle, D2 symmetry; open (4.19 Å) and closed (6.6 Å) tetramers

Protein | stoichiometry N [1] | stoichiometry N [2]
Se-Met mL-GDH180 (seleno-methionine derivative of the mycobacterial L-GDH180 from Mycobacterium smegmatis MC2-155) (enzyme, UniProt A0R1C2 1-1594, looked up, seleno-methionine in place of methionine, No cleavage of the His6 tag is described; Crystallised from a solution that also held an equimolar amount of GarA from M. tuberculosis, which was not found in the crystal; also called seleno-methionine (Se-Met) derivative of mL-GDH180) MIRRLSVAFLSTYRGPQADAPGVTSTGPLAVAAHDDLVSDDLVAAHYRLASMRAPGETKAAVYPGDAGSGAALQIVTDQAPMLVDSVTVLLHRHGIAYTAIMNPVFRVRRGLDGELLDVRPAAEAAPGDGADECWILVPITAAADGEALTEATRLVPGILAEARQIGLDSGAMIAALHGLANDLATDLEGHFPNAERKEVAALLRWLADGHFVLLGYQQCVVGDGNAEVDPASRLGVLRLRNDVLPPLTDSDDLLVLAQATMPSYLRYGAYPYIVVVRESPGASRVIEHRFVGLFTVAAMNANALEIPLISRRVEEALAMAHRDPSHPGQLLRDIIQTIPRPELFALSSKQLLEMALAVVDLGSRRRTLLFLRADHLAHFVSCLVYLPRDRYTTAVRLEMQDILVRELGGAGIDYSARVSESPWAVVHFTVRLPEGTAADSVDTSLENESRIQDLLTEATRNWGDRMISAAAAASISPAALEHYAHAFPEDYKQAFAPQDAIADISLIEALQDDSVKLVLADTAEDRVWKLTWYLGGHSASLSELLPMLQSMGVVVLEERPFTLRRTDGLPVWIYQFKISPHPSIPHAPDAEAQRDTAQRFADAVTAIWHGRVEIDRFNELVMRAGLTWQQVVVLRAYAKYLRQAGFPYSQSHIESVLNENPHTTRSLIDLFEALFDPSQETDGRRDAQGAAAAVAADIDALVSLDTDRVLRAFANLIEATLRTNYFVARPDSARARNVLAFKLNPLVIKELPLPRPKFEIFVYSPRVEGVHLRFGFVARGGLRWSDRREDFRTEILGLVKAQAVKNAVIVPVGAKGGFVVKRPPTLTGDAAADREATRAEGVECYRLFISGLLDVTDNVDKATGAVVTPPEVVRRDGEDAYLVVAADKGTATFSDIANEVAKSYGFWLGDAFASGGSIGYDHKAMGITAKGAWESVKRHFREMGVDTQTQDFTVVGIGDMSGDVFGNGMLLSKHIRLVAAFDHRDIFLDPNPDAGRSWDERKRLFDLPRSSWADYDKSLISEGGGVYSRQQKSIPISPQVRTALGLDADVEELTPPALIKAILKAPVDLLWNGGIGTYIKAETEADADVGDRANDQIRVCGNQVRAKVIGEGGNLGVTALGRIEFDLAGGRINTDALDNSAGVDCSDHEVNIKILIDSAVTAGKVTPEERTELLLSMTDEVGELVLADNRDQNDLMGTSRANAASLLSVHARMIKDLVDNRGLNRELEALPSEKEIRRRADAGIGLTSPELATLMAHVKLALKDDVLASDLPDQEVFASRLPYYFPTRLREELHGEIRSHQLRREIITTMLVNDLVDTAGISYAYRITEDVGVGPVDAVRSYVAINAIFGIGDVWRRIRAAGDAGVPTSVTDRMTLDLRRLVDRAGRWLLNYRPQPLAVGAEINRFGAKVAALTPRMSEWLRGDDKAIVSKEAGDFASHGVPEDLAYHIATGLYQYSLLDVIDIADIVDREPDEVADTYFALMDHLGADALLTAVSRLSRDDRWHSLARLAIRDDIYGSLRALCFDVLAVGEPDENGEEKIAEWETTNSSRVTRARRTLTEIYKDGEQDLATLSVAARQIRSMTRTSGTGTTG | 4 | 
native mL-GDH180 (mycobacterial large glutamate dehydrogenase of 180 kDa subunits from Mycobacterium smegmatis MC2-155) (enzyme, UniProt A0R1C2 1-1594, looked up, NAD-dependent large glutamate dehydrogenase (L-GDH180), Mycobacterium smegmatis MC2-155, MSMEG_4699, Uniprot A0R1C2; No cleavage of the His6 tag is described; Only residues 500-1588 are modelled in the cryo-EM coordinates (7A1D); also called L-GDH180 from M. smegmatis; MSMEG_4699; source: E. coli BL21(DE3) grown in LB broth, purified (HisTrap HP, Superose 6 size-exclusion chromatography)) MIRRLSVAFLSTYRGPQADAPGVTSTGPLAVAAHDDLVSDDLVAAHYRLASMRAPGETKAAVYPGDAGSGAALQIVTDQAPMLVDSVTVLLHRHGIAYTAIMNPVFRVRRGLDGELLDVRPAAEAAPGDGADECWILVPITAAADGEALTEATRLVPGILAEARQIGLDSGAMIAALHGLANDLATDLEGHFPNAERKEVAALLRWLADGHFVLLGYQQCVVGDGNAEVDPASRLGVLRLRNDVLPPLTDSDDLLVLAQATMPSYLRYGAYPYIVVVRESPGASRVIEHRFVGLFTVAAMNANALEIPLISRRVEEALAMAHRDPSHPGQLLRDIIQTIPRPELFALSSKQLLEMALAVVDLGSRRRTLLFLRADHLAHFVSCLVYLPRDRYTTAVRLEMQDILVRELGGAGIDYSARVSESPWAVVHFTVRLPEGTAADSVDTSLENESRIQDLLTEATRNWGDRMISAAAAASISPAALEHYAHAFPEDYKQAFAPQDAIADISLIEALQDDSVKLVLADTAEDRVWKLTWYLGGHSASLSELLPMLQSMGVVVLEERPFTLRRTDGLPVWIYQFKISPHPSIPHAPDAEAQRDTAQRFADAVTAIWHGRVEIDRFNELVMRAGLTWQQVVVLRAYAKYLRQAGFPYSQSHIESVLNENPHTTRSLIDLFEALFDPSQETDGRRDAQGAAAAVAADIDALVSLDTDRVLRAFANLIEATLRTNYFVARPDSARARNVLAFKLNPLVIKELPLPRPKFEIFVYSPRVEGVHLRFGFVARGGLRWSDRREDFRTEILGLVKAQAVKNAVIVPVGAKGGFVVKRPPTLTGDAAADREATRAEGVECYRLFISGLLDVTDNVDKATGAVVTPPEVVRRDGEDAYLVVAADKGTATFSDIANEVAKSYGFWLGDAFASGGSIGYDHKAMGITAKGAWESVKRHFREMGVDTQTQDFTVVGIGDMSGDVFGNGMLLSKHIRLVAAFDHRDIFLDPNPDAGRSWDERKRLFDLPRSSWADYDKSLISEGGGVYSRQQKSIPISPQVRTALGLDADVEELTPPALIKAILKAPVDLLWNGGIGTYIKAETEADADVGDRANDQIRVCGNQVRAKVIGEGGNLGVTALGRIEFDLAGGRINTDALDNSAGVDCSDHEVNIKILIDSAVTAGKVTPEERTELLLSMTDEVGELVLADNRDQNDLMGTSRANAASLLSVHARMIKDLVDNRGLNRELEALPSEKEIRRRADAGIGLTSPELATLMAHVKLALKDDVLASDLPDQEVFASRLPYYFPTRLREELHGEIRSHQLRREIITTMLVNDLVDTAGISYAYRITEDVGVGPVDAVRSYVAINAIFGIGDVWRRIRAAGDAGVPTSVTDRMTLDLRRLVDRAGRWLLNYRPQPLAVGAEINRFGAKVAALTPRMSEWLRGDDKAIVSKEAGDFASHGVPEDLAYHIATGLYQYSLLDVIDIADIVDREPDEVADTYFALMDHLGADALLTAVSRLSRDDRWHSLARLAIRDDIYGSLRALCFDVLAVGEPDENGEEKIAEWETTNSSRVTRARRTLTEIYKDGEQDLATLSVAARQIRSMTRTSGTGTTG |  | 4
